Where two headings read alike, the source gives them in different places.
What was measured:
SEC = biological target: the molecule itself; assay: SEC
[1] = biological target: T1, ComAC (ComA C-terminal DNA-binding domain) (Bacillus subtilis, UniProt P14204 146-214); assay: SPR
T1 sequence: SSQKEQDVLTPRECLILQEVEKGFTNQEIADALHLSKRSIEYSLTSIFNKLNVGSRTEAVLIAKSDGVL

[2] = biological target: T1, ComAC (ComA C-terminal DNA-binding …); assay: SPR; remark: listed apart in the source

B1: Full-length competence protein A (ComAFL) (natural protein, Bacillus subtilis, UniProt P14204 1-214, looked up)
chain: MKKILVIDDHPAVMEGTKTILETDSNLSVDCLSPEPSEQFIKQHDFSSYDLILMDLNLGGEVNGMELSKQILQENPHCKIIVYTGYEVEDYFEEAIRAGLHGAISKTESKEKITQYIYHVLNGEILVDFAYFKQLMTQQKTKPAPSSQKEQDVLTPRECLILQEVEKGFTNQEIADALHLSKRSIEYSLTSIFNKLNVGSRTEAVLIAKSDGVL
stoichiometry N (SEC): 2

B2: Consensus RE1-RE3 (dsDNA)
DNA 1: TTGCGGCATCCCGCAAGAAACTTTGCGG
DNA 2: CCGCAAAGTTTCTTGCGGGATGCCGCAA
Kd [1]: 11.3 nM

B3: Consensus RE3 (dsDNA)
DNA 1: TTTCGGCATCCCGCATGAAACTTTGCGG
DNA 2: CCGCAAAGTTTCATGCGGGATGCCGAAA
Kd [2]: 4.94 nM

B4: N-terminal domain of competence protein A (ComAN, residues 1-126) (domain or fragment, Bacillus subtilis, UniProt P14204 1-126, looked up)
chain: MKKILVIDDHPAVMEGTKTILETDSNLSVDCLSPEPSEQFIKQHDFSSYDLILMDLNLGGEVNGMELSKQILQENPHCKIIVYTGYEVEDYFEEAIRAGLHGAISKTESKEKITQYIYHVLNGEIL
stoichiometry N (SEC): 2

B5: N-terminal domain of competence protein A with asparagine at position 55 (ComAN-D55N, residues 1-126) (domain or fragment, Bacillus subtilis, UniProt P14204 1-126, looked up)
chain: MKKILVIDDHPAVMEGTKTILETDSNLSVDCLSPEPSEQFIKQHDFSSYDLILMNLNLGGEVNGMELSKQILQENPHCKIIVYTGYEVEDYFEEAIRAGLHGAISKTESKEKITQYIYHVLNGEIL
stoichiometry N (SEC): 2

B6: Wild type srfA (dsDNA)
DNA 1: TTTCGGCATCCCGCATGAAACTTTTCAC
DNA 2: GTGAAAAGTTTCATGCGGGATGCCGAAA
Kd [2]: 9.59 nM

Reference: publication PMC2855743 (Journal of molecular biology, 2010)
